# Experimental data published in US20150203577A1 (Chugai, published 2015).
# Changes are numbered by the printed parent chain. Where “and” joins values, the source holds several entries; their conditions need not be identical. Equal values may be shown once.
# T1: mouse FcγRII extracellular domain, C-terminally His-tagged (mouse, UniProt P08101 30-210)
# T1 construct: the whole entry is named; also called mFcγRII; mFcgRII
# T1 sequence: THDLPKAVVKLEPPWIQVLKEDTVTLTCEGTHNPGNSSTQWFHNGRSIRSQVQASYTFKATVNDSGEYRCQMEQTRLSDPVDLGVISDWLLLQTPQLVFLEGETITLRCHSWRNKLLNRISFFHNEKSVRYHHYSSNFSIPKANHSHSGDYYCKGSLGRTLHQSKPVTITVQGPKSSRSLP
# T2: mouse FcγRIII extracellular domain, C-terminally His-tagged (mouse, UniProt P08508 31-215)
# T2 construct: the whole entry is named; also called mFcγRIII; mFcgRIII
# T2 chain: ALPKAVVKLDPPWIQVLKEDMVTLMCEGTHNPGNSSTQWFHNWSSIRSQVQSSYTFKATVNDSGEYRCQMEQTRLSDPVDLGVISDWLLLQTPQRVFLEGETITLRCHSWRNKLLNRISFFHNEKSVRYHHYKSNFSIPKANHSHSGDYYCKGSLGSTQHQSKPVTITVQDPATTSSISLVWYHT
# T3: mouse FcγRII (mouse, UniProt P08101 30-210)
# T3 construct: Extracellular domain with C-terminal His tag, made in FreeStyle 293 cells; also called mFcγRII; mFcgRII
# T3 sequence: T1 sequence
# T4: mouse FcγRIII (mouse, UniProt P08508 31-215)
# T4 construct: Extracellular domain with C-terminal His tag, made in FreeStyle 293 cells; also called mFcγRIII; mFcgRIII
# T4 chain: T2 chain
# T5: mouse FcγRII extracellular domain, C-terminal His tag (mouse, UniProt P08101 30-210)
# T5 construct: Whole entry named; also called mFcγRII; mFcgRII
# T5 sequence: T1 sequence
# T6: mouse FcγRIII extracellular domain, C-terminal His tag (mouse, UniProt P08508 31-215)
# T6 construct: Whole entry named; also called mFcγRIII; mFcgRIII
# T6 chain: T2 chain
# B1: H237-MB623/MRAL-k0 (antibody, mouse IgG1, kappa)
# heavy: QVQLQESGPGLVKPSETLSLTCAVSGHSISHDHAWSWVRQPPGEGLEWIGFISYSGITNYNPSLQGRVTISRDNSKNTLYLQMNSLRAEDTAVYYCARSLARTTAMDYWGEGTLVTVSSAKTTPPSVYPLAPGSAAQTNSMVTLGCLVKGYFPEPVTVTWNSGSLSSGVHTFPAVLQSDLYTLSSSVTVPSSTWPSETVTCNVAHPASSTKVDKKIVPRDCGCKPCICEAYEVELVFIFPPKPKDVLTITLTPKVTCVVVDISKDDPEVQFSWFVDDVEVHTAQTQPREEQFNSTFRSVSELPIMHQDWLNGKEFKCRVNSAAFPAPIEKTISKTKGRPKAPQVYTIPPPKEQMAKDKVSLTCMITDFFPEDITVEWQWNGQPAENYKNTQPIMDTDGSYFVYSKLNVQKSNWEAGNTFTCSVLHEGLHNHHTEKSLSHSPGK
# light: not shown
# notes: copies: 2 + 2
# B2: H237-MB628/MRAL-k0 (antibody, mouse IgG1, kappa)
# heavy: B1 heavy with A230P, Y231A
# light: not shown
# notes: copies: 2 + 2
# B3: H237-MB640/MRAL-k0 (antibody, mouse IgG1, kappa)
# heavy: B1 heavy with E229Q, A230P, Y231N, L235N
# light: not shown
# notes: copies: 2 + 2
# B4: H237-MB630/MRAL-k0 (antibody, mouse IgG1, kappa)
# heavy: B1 heavy with A230P, Y231N
# light: not shown
# notes: copies: 2 + 2
# B5: H237-MB641/MRAL-k0 (antibody, mouse IgG1, kappa)
# heavy: B1 heavy with L235Y
# light: not shown
# notes: copies: 2 + 2
# B6: H237-MB633/MRAL-k0 (antibody, mouse IgG1, kappa)
# heavy: B1 heavy with A230D, L235N
# light: not shown
# notes: copies: 2 + 2
# B7: H237-MB634/MRAL-k0 (antibody, mouse IgG1, kappa)
# heavy: B1 heavy with A230N, L235N
# light: not shown
# notes: copies: 2 + 2
# B8: H237-MB629/MRAL-k0 (antibody, mouse IgG1, kappa)
# heavy: B1 heavy with E229I, A230P, Y231A
# light: not shown
# notes: copies: 2 + 2
# B9: H237-MB625/MRAL-k0 (antibody, mouse IgG1, kappa)
# heavy: B1 heavy with A230N
# light: not shown
# notes: copies: 2 + 2
# B10: H237-MB626/MRAL-k0 (antibody, mouse IgG1, kappa)
# heavy: B1 heavy with A230T
# light: not shown
# notes: copies: 2 + 2
# B11: H237-MB642/MRAL-k0 (antibody, mouse IgG1, kappa)
# heavy: B1 heavy with A230D, L235Y
# light: not shown
# notes: copies: 2 + 2
# B12: H237-MB637/MRAL-k0 (antibody, mouse IgG1, kappa)
# heavy: B1 heavy with A230P, Y231A, L235N
# light: not shown
# notes: copies: 2 + 2
# B13: H237-MB632/MRAL-k0 (antibody, mouse IgG1, kappa)
# heavy: B1 heavy with L235N
# light: not shown
# notes: copies: 2 + 2
# B14: H237-MB636/MRAL-k0 (antibody, mouse IgG1, kappa)
# heavy: B1 heavy with A230V, L235N
# light: not shown
# notes: copies: 2 + 2
# B15: H237-MB635/MRAL-k0 (antibody, mouse IgG1, kappa)
# heavy: B1 heavy with A230T, L235N
# light: not shown
# notes: copies: 2 + 2
# B16: H237-MB627/MRAL-k0 (antibody, mouse IgG1, kappa)
# heavy: B1 heavy with A230V
# light: not shown
# notes: copies: 2 + 2
# B17: H237-MB624/MRAL-k0 (antibody, mouse IgG1, kappa)
# heavy: B1 heavy with A230D
# light: not shown
# notes: copies: 2 + 2
# B18: H237-MB631/MRAL-k0 (antibody, mouse IgG1, kappa)
# heavy: B1 heavy with E229Q, A230P, Y231N
# light: not shown
# notes: copies: 2 + 2
# B19: H237-MB643/MRAL-k0 (antibody, mouse IgG1, kappa)
# heavy: B1 heavy with A230N, L235Y
# light: not shown
# notes: copies: 2 + 2
# B20: H237-MB638/MRAL-k0 (antibody, mouse IgG1, kappa)
# heavy: B1 heavy with E229I, A230P, Y231A, L235N
# light: not shown
# notes: copies: 2 + 2
# B21: H237-MB639/MRAL-k0 (antibody, mouse IgG1, kappa)
# heavy: B1 heavy with A230P, Y231N, L235N
# light: not shown
# notes: copies: 2 + 2
# B22: H237-MB594/MRAL-k0 (antibody, mouse IgG1, kappa)
# heavy: B1 heavy with A230V, Y231P, V233E, L235S
# light: not shown
# notes: copies: 2 + 2
# B23: H237-MB645/MRAL-k0 (antibody, mouse IgG1, kappa)
# heavy: B1 heavy with A230V, L235Y
# light: not shown
# notes: copies: 2 + 2
# B24: H237-MB621/MRAL-k0 (antibody, mouse IgG1, kappa)
# heavy: B1 heavy with E229T, A230V, Y231P, E234D, L235E
# light: not shown
# notes: copies: 2 + 2
# B25: H237-MB682/MRAL-k0 (antibody)
# heavy: B1 heavy with A230P, Y231K, L235D
# light: not shown
# notes: copies: 2 + 2
# B26: H237-MB680/MRAL-k0 (antibody)
# heavy: B1 heavy with A230N, Y231K, L235D
# light: not shown
# notes: copies: 2 + 2
# B27: H237-MB676/MRAL-k0 (antibody)
# heavy: B1 heavy with A230P, Y231N, L235K
# light: not shown
# notes: copies: 2 + 2
# B28: H237-MB679/MRAL-k0 (antibody)
# heavy: B1 heavy with A230D, Y231K, L235D
# light: not shown
# notes: copies: 2 + 2
# B29: H237-MB622/MRAL-k0 (antibody, mouse IgG1, kappa)
# heavy: B1 heavy with E229T, A230V, Y231P, E234D, L235D
# light: not shown
# notes: copies: 2 + 2
# B30: H237-MB684/MRAL-k0 (antibody)
# heavy: B1 heavy with E229Q, A230P, Y231K, L235D
# light: not shown
# notes: copies: 2 + 2
# B31: H237-MB681/MRAL-k0 (antibody)
# heavy: B1 heavy with A230P, Y231K, L235D
# light: not shown
# notes: copies: 2 + 2
# B32: H237-MB678/MRAL-k0 (antibody)
# heavy: B1 heavy with A230V, Y231K, L235D
# light: not shown
# notes: copies: 2 + 2
# B33: H237-MB683/MRAL-k0 (antibody)
# heavy: B1 heavy with A230T, Y231K, L235D
# light: not shown
# notes: copies: 2 + 2
# Molecular target: T1, mouse FcγRII extracellular domain, …
# Experiment: SPR Biacore T200, KD ratio
# Protocol: (§1) Each altered antibody was analyzed for its interaction with each Fcγ receptor prepared above using Biacore T100 (GE Healthcare Japan Corp.), Biacore T200 (GE Healthcare Japan Corp.), Biacore A100, or Biacore 4000. The running buffer used was HBS-EP+ (GE Healthcare Japan Corp.). The assay temperature was set to 25° C. The sensor chips used were chips prepared by immobilizing Protein L (ACTIGEN or BioVision) onto Series S Sensor Chip CM5 (GE Healthcare Japan Corp.) or Series S Sensor Chip CM4 (GE Healthcare Japan Corp.) by the amine coupling method.
# (§2) In order to calculate the KD value of each altered antibody for FcγR, kinetic analysis was conducted according to the following method: first, the antibody of interest was captured onto any of these chips and allowed to interact with mFcγR diluted with a running buffer. For the obtained sensorgram, the assay results were globally fit into the 1:1 Langmuir binding model using Biacore Evaluation Software to calculate an association rate constant ka (L/mol/s) and a dissociation rate constant kd (1/s). From these values, the dissociation constant KD (mol/L) was calculated.
row,relative mFcγRII-binding activity (mIgG1 = 1),Binder
1,0.53 fold,B1
2,2.2 fold,B2
3,1.06 fold,B3
4,14.3 fold,B4
5,1.47 fold,B5
6,2.77 fold,B6
7,2.52 fold,B7
8,0.38 fold,B8
9,0.67 fold,B9
10,0.81 fold,B10
11,1.87 fold,B11
12,2.6 fold,B12
13,3.64 fold,B13
14,4.41 fold,B14
15,5.06 fold,B15
16,0.32 fold,B16
17,0.8 fold,B17
18,4.29 fold,B18
19,1.66 fold,B19
20,0.75 fold,B20
21,4.91 fold,B21

# Molecular target: T2, mouse FcγRIII extracellular domain, …
# Experiment: SPR Biacore T200, KD ratio
# Protocol: as §1, §2
row,relative mFcγRIII-binding activity (mIgG1 = 1),Binder
1,0.09 fold,B1
2,0.06 fold,B2
3,0.18 fold,B3
4,0.25 fold,B4
5,0.13 fold,B5
6,0.17 fold,B6
7,0.21 fold,B7
8,0.04 fold,B8
9,0.12 fold,B9
10,0.12 fold,B10
11,0.08 fold,B11
12,0.15 fold,B12
13,0.18 fold,B13
14,0.14 fold,B14
15,0.29 fold,B15
16,0.09 fold,B16
17,0.1 fold,B17
18,0.28 fold,B18
19,0.14 fold,B19
20,0.08 fold,B20
21,0.38 fold,B21

# Molecular target: T3, mouse FcγRII
# Experiment: SPR (Biacore), antibody captured on Protein L
# Protocol: as §1, §2
row,Kd,Binder
1,115 nM and 250 nM,B22
2,180 nM and 307 nM,B23

# Molecular target: T4, mouse FcγRIII
# Experiment: SPR (Biacore), antibody captured on Protein L
# Protocol: as §1, §2
row,Kd,Binder
1,3230 nM and 9030 nM,B22
2,1420 nM and 2360 nM,B23

# Molecular target: T5, mouse FcγRII extracellular domain, …
# Experiment: SPR (Biacore T200); KD of H237-mIgG1/MRAL-k0 / KD of variant
row,relative mFcγRII-binding activity (mIgG1 = 1),Binder
1,3.15 fold,B24
2,14 fold,B25
3,8.97 fold,B26
4,0.22 fold,B27
5,7.57 fold,B28
6,3.83 fold,B29
7,5.37 fold,B30
8,13.9 fold,B31
9,8.03 fold,B32
10,7.7 fold,B33

# Molecular target: T6, mouse FcγRIII extracellular domain, …
# Experiment: as above
row,relative mFcγRIII-binding activity (mIgG1 = 1),Binder
1,0.23 fold,B24
2,2.14 fold,B25
3,1.75 fold,B26
4,0.12 fold,B27
5,1.68 fold,B28
6,0.4 fold,B29
7,1.02 fold,B30
8,1.83 fold,B31
9,2.01 fold,B32
10,0.9 fold,B33
